Drawing on paper PMC8727931, this text covers ratio to parent for four variants.

B1: His-tagged GABARAP [not stated] / GST-FAM134B [not stated] (parent)
chain 1: MKFVYKEEHPFEKRRSEGEKIRKKYPDRVPVIVEKAPKARIGDLDKKKYLVPSDLTVGQFYFLIRKRIHLRAEDALFFFVNNVIPPTSATMGQLYQEHHEEDFFLYIAYSDESVYGL
chain 2: EGDDFELLDQSELDQIESELGLTQDQ

Variants of B1 are the subject of the first assay. As to the kind of experiment: competitive GST pull-down (gel band quantification). The conditions noted are these: with GST-FAM134B; competition with MBP-LC3A H57D in the same reaction; n = 3; read off a plot.
For the variant chain 1 D54H, the ratio to parent was found to be 1.05.

The same assay, now with this note: with GST-FAM134B; competition with MBP-LC3A K65F in the same reaction; n = 3; read off a plot.
In the case of chain 1 F62K, the ratio to parent came to 1.05.

Staying with this assay, now noted: with GST-FAM134B; competition with MBP-LC3A K30R in the same reaction; n = 3; read off a plot.
For the variant chain 1 R28K, the ratio to parent stood at 0.87.

Staying with this assay, now noted: with GST-FAM134B; competition with MBP-LC3A H27Y in the same reaction; n = 3; read off a plot.
For the variant chain 1 Y25H, the ratio to parent came to 0.89.
